In PMC9331050:

Experiments:
[1] = biological target: CreFH1, frataxin homolog from Chlamydomonas reinhardtii, mature form without the mitochondrial transit peptide (Chlamydomonas reinhardtii); test: native MS; ESI-TOF MS of recombinant CreFH1 after 3 h with Cu2+, Fe3+, Zn2+ or water; carrier 5:95 acetonitrile:ammonium acetate/ammonia 15 mM, pH 7.0; monomer to dimer
[2] = biological target: CreFH1, frataxin homolog from Chlamydomonas reinhardtii, mature form without the mitochondrial transit peptide (Chlamydomonas reinhardtii); test: native gel or EMSA; 8% native PAGE of purified CreFH1 incubated 1 or 3 h with water (control) or 33 uM Fe3+, Cu2+ or Zn2+; 3 ug protein a lane; Coomassie stain, densitometry; monomer to dimer

For “CreFH1, frataxin homolog from Chlamydomonas reinhardtii, mature form without the mitochondrial transit peptide (natural protein)”, the stoichiometry N [1] was 2, the percent of protein as dimer, with Zn2+ or Fe3+ [2] was 22% and the percent of total protein as dimer, with Cu2+ [2] was 40%. The stoichiometry N [2] was 2.
